These results are taken from patent US8501695B2, “Tissue kallikrein for the treatment of diseases associated with amyloid protein” (DiaMedica, Inc., priority 2007, dated 2013).

Series [1] has as its system rat mixed cortical cultures (RMCC). The series can be described thus: Aβ1-42 toxicity in rat mixed cortical cultures, neuronal survival (NeuN cell count). Type of series: cell-based. As to the method: (§1) Whether pre-treatment with tissue kallikrein protects rat mixed cortical cultures against exposure to human amyloid beta peptide (Aβ1-42) was investigated. Cell death was analyzed by LDH-release, an indication of necrosis, and cell viability was also analyzed by neuronal cell count. First (Study Arm A), tissue kallikrein was added to the cells only prior to the Aβ1-42 insult (at −24 h and at −30 min). Whereas in the second part (Study Arm B), tissue kallikrein was added to the cells prior to (−30 min) and also at +24 h after the Aβ1-42 insult. At the +24 h time point, cell culture media were not changed (tissue kallikrein or corresponding amount of vehicle was added to the wells), whereas at −24 h and −30 min time point cell culture media were changed.
(§2) […] Cell Culture. Mixed cortical cultures were prepared from E18 Wistar rat embryos (National Animal Center, Kuopio, Finland). The cortices were dissected out, and the tissue cut to small pieces. The cells were separated by 15-min incubation with DNase and papain. The cells were collected by centrifugation (1500 rpm, 5 min). The tissue was triturated with a pipette and the cells were plated on poly-L-lysine-coated 48-well plates, 300,000 cells/cm^2, in MEM (2 g/L glucose) supplemented with 2 mM glutamine, 0.1 μg/ml gentamicin, 10% heat-inactivated fetal bovine serum (FBS-HI) and 10% heat-inactivated horse serum (HS-HI). After 3-4 h, the media were changed to MEM (2 g/L glucose) supplemented with 2 mM glutamine, 0.1 μg/ml gentamicin, 5% HS-HI. After three days in vitro, media containing MEM (2 g/L glucose) supplemented with glutamine, gentamicin, and 5% of both sera were changed to the cells. On day 6 in vitro, the unwanted cell division was inhibited by adding cytosine arabinoside (10 μM final concentration) for 24 h. The cultures were refed with MEM (2 g/L glucose) supplemented with glutamine, gentamicin, and 5% HS-HI before experiments.
(§3) Aβ1-42 Exposure. Tissue kallikrein (SEQ ID NO:1) was dissolved and further diluted in MEM supplemented with glucose, glutamine, gentamicin, and 5% HS-HI. As a control for total neuronal death, 300 μM N-methyl-D-aspartic acid (NMDA) for 48 h was used, and 10 μM Aβ1-42 for 48 h was used to induce approximately 30-50% cell death. Wells treated with media only served as 0-control. Tissue kallikrein or vehicle was pipetted to the cells −24 h and −30 min before adding 10 μM Aβ1-42 (final concentration). Tissue kallikrein or vehicle was again pipetted to the cells at +24 h after exposure.
Immunocytochemistry for Neuronal Survival. For neuronal counts, the cultures were fixed with 4% paraformaldehyde in 0.01 M PBS for 30 min and washed twice with PBS. The fixed cells were first permeabilized, and non-specific binding blocked by 30 min incubation with blocking buffer containing 1% bovine serum albumin and 0.3% Triton® X-100 in PBS. Anti-neuronal nuclei antibody (anti-NeuN, dilution 1:500, Chemicon, Temecula, Calif.) was used as the primary antibody. The cells were incubated with the primary antibody for 48 h, followed by incubation with a biotinylated secondary antibody (1:200, Vector Labs) for 2 h, and the avidin-biotin-peroxidase complex (ABC-reagent, 1:200, Vector ABC Elite Kit, Vector Labs) for 2 h. The positive cells were visualized using Ni-enhanced DAB as a substrate (DAB Substrate kit, Vector Labs). The NeuN immunopositive neurons were counted using a light microscope. Altogether, 2 fields of each well were counted. The results are shown as percent viable neurons.
Data Analysis. The number of wells per compound concentration used was 6 (n=6). […] Statistical analysis was performed using StatsDirect statistical software. The values were analyzed by one-way ANOVA followed by Dunnet's test (comparison to the vehicle-treated group). Results are presented as mean±standard deviation (SD) and differences are considered to be statistically significant at the P<0.05 level.

Series [2] shares this test system. The series can be described thus: Aβ1-42 toxicity in rat mixed cortical cultures, LDH measurement. Type of series: cell-based. As to the method: as §1, §2, §3
LDH Measurement. After 48 h, the culture media of all wells were collected, and possible cell debris was removed by centrifugation (13,000 rpm for 3 min). A 100 μl aliquot was pipetted into a microtiter plate as duplicates, and equal amount of LDH reagent was pipetted to the wells. The absorbance at 340 nm was measured immediately using a 3 min kinetic measurement protocol in Multiskan ELISA reader (Labsystems, Finland). The change in absorbance/min was determined, which was directly proportional to the released LDH. The remaining supernatant (50 μl) was snap-frozen in dry ice for storage.
Data Analysis. The number of wells per compound concentration used was 6 (n=6). Five concentrations of Tissue kallikrein were studied (0.001, 0.01, 0.1, 1, 10 μg/ml) in both study arms. Statistical analysis was performed using StatsDirect statistical software. The values were analyzed by one-way ANOVA followed by Dunnet's test (comparison to the vehicle-treated group). Results are presented as mean±standard deviation (SD) and differences are considered to be statistically significant at the P<0.05 level.

Series [3] deals with amyloid fibrils (fAβ) from synthetic human amyloid protein Aβ1-42 or Aβ1-40. In words: In vitro amyloid protein cleavage assay, digestion of fibrils, mass spectroscopy. The note with it: 37° C., 4 h to 5 days, mass spectra FIG. 1. Type of series: biochemical. The procedure:
Synthetic human amyloid protein Aβ1-42 or Aβ1-40 was dissolved in dimethyl sulfoxide (DMSO) (Sigma, St. Louis, Mo.) to a concentration of 5 mM, and is then diluted in MilliQ® water to a final concentration of […] immediately prior to use. To prepare amyloid fibrils (fAβ) 5 mM Aβ1-42 or Aβ1-40 in DMSO was diluted in 10 mM HCl to 100 μM (for Aβ1-42) or […] (for Aβ1-40), vortexed for 30 s, and was incubated at 37° C. for 5 days. KLK1 (Sigma) was used for digestion reactions in the following buffers: ECE, 0.1 M MES, 0.1 M NaCl (pH 6.0); IDE, 50 mM Tris, 1 M NaCl (pH 7.5); NEP, 0.1 M MES (pH 6.5); and MMP-9, 50 mM Tris-HCl (pH 7.5), 10 mM CaCl2, 150 mM NaCl, 0.05% Brij 35. It was incubated at 37° C. for 4 h to 5 days. After digestion, the reaction was analyzed by mass spectroscopy. The samples were added to 50 mM glycine (pH 9.2)/2 mM thioflavin T (ThT) (Sigma) at a final volume of up to 2 ml. […] However, in panel C, there is a clear peak at about 2423 M/Z (mass to charge ration), which is an indication of cleavage.

Chain of amyloid fibrils (fAβ) from synthetic human amyloid protein Aβ1-42 or Aβ1-40 (P05067 672-711 limits assumed): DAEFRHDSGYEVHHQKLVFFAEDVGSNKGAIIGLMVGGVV

B1: tissue kallikrein: serine protease that cleaves kininogen into kallidin; polypeptide SEQ ID NO:1 (Sus scrofa kallikrein 1), KLK1 from Sigma (protein, listed as Sus scrofa)
chain: MWSLVMRLALSLAGTGAAPPIQSRIIGGRECEKDSHPWQVAIYHYSSFQCGGVLVDPKWVLTAAHCKNDNYQVWLGRHNLFENEVTAQFFGVTADFPHPGFNLSLLKNHTKADGKDYSHDLMLLRLQSPAKITDAVKVLELPTQEPELGSTCQASGWGSIEPGPDDFEFPDEIQCVELTLLQNTFCADAHPDKVTESMLCAGYLPGGKDTCMGDSGGPLICNGMWQGITSWGHTPCGSANKPSIYTKLIFYLDWINDTITENP
modifications: 125I label in one form
On to B1, for which the “cell counts (survival) after Aβ1-42 insult” value in series [1] (Study Arm A, 1.0 μg/ml) is “provided protection”; in series [1] (Study Arm A, 10 μg/ml), “protection provided by 10 μg/ml was statistically significant”; in series [1] (Study Arm A, lower concentrations) it was “did not affect cell counts”; in series [1] (Study Arm B, 1.0 μg/ml) it was “Increases in cell counts”; in series [1] (Study Arm B, 10 μg/ml), “protection provided by 10 μg/ml was statistically significant”; in series [1] (Study Arm B, lower concentrations), “did not affect cell counts”. The “LDH release following Aβ1-42 insult” value in series [2] (10 μg/ml, Study Arms A, B and C (all three treatment arms), FIG. 7) is “statistically significant reduction of LDH release”; in series [2] (Study Arm A (-24 h and -30 min), 10 μg/ml, 10 μM Aβ1-42), “significantly reduced LDH release”; in series [2] (Study Arm A (-24 h and -30 min), 0.001, 0.01, 0.1 and 1.0 μg/ml, 10 μM Aβ1-42) it was “did not alter LDH release”; in series [2] (Study Arm B (-30 min and +24 h), 1.0 μg/ml) it was “reduced LDH release”; in series [2] (Study Arm B (-30 min and +24 h), 10 μg/ml), “statistically significant reduction of LDH release”; in series [2] (Study Arm B (-30 min and +24 h), 0.001, 0.01 and 0.1 μg/ml, 10 μM Aβ1-42), “did not alter LDH release”. Moreover, the “cleavage of amyloid fibrils” value in series [3] was “cleaves amyloid fibrils”.
